T1: Arabidopsis thaliana pyruvate dehydrogenase-kinase (AtPDK), wild type, bacterial two-hybrid fusion in pBT (Arabidopsis thaliana, UniProt Q9SBJ1 1-366)
T1 sequence (looked up): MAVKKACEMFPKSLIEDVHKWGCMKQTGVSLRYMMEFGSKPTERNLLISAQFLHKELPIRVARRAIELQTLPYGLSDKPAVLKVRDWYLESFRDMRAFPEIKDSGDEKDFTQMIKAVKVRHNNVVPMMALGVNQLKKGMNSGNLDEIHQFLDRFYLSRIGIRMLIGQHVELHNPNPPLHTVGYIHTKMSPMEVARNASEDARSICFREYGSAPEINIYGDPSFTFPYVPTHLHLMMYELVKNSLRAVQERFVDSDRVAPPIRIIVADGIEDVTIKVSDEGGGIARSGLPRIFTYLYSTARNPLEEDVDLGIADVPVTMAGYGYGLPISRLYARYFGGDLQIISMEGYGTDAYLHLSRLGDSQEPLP

B1: AtPDC E1 (AtE1; recombinant alpha2beta2 pyruvate dehydrogenase) (Arabidopsis thaliana) (protein)
chain 1: SAAFSRLISTDTTPITIETSLPFTAHLCDPPSRSVESSSQELLDFFRTMALMRRMEIAADSLYKAKLIRGFCHLYDGQEAVAIGMEAAITKKDAIITAYRDHCIFLGRGGSLHEVFSELMGRQAGCSKGKGGSMHFYKKESSFYGGHGIVGAQVPLGCGIAFAQKYNKEEAVTFALYGDGAANQGQLFEALNISALWDLPAILVCENNHYGMGTAEWRAAKSPSYYKRGDYVPGLKVDGMDAFAVKQACKFAKQHALEKGPIILEMDTYRYHGHSMSDPGSTYRTRDEISGVRQERDPIERIKKLVLSHDLATEKELKDMEKEIRKEVDDAIAKAKDCPMPEPSELFTNVYVKGFGTESFGPDRKEVKASLP
chain 2: AAGAKEMTVRDALNSAIDEEMSADPKVFVMGEEVGQYQGAYKITKGLLEKYGPERVYDTPITEAGFTGIGVGAAYAGLKPVVEFMTFNFSMQAIDHIINSAAKSNYMSAGQINVPIVFRGPNGAAAGVGAQHSQCYAAWYASVPGLKVLAPYSAEDARGLLKAAIRDPDPVVFLENELLYGESFPISEEALDSSFCLPIGKAKIEREGKDVTIVTFSKMVGFALKAAEKLAEEGISAEVINLRSIRPLDRATINASVRKTSRLVTVEEGFPQHGVCAEICASVVEESFSYLDAPVERIAGADVPMPYAANLERLALPQIEDIVRASKRACYRSK
notes: co-expressed in E. coli with GroE; alpha2beta2 heterotetramer, Mr 160,000
B2: AtPDC E1 (AtE1; recombinant alpha2beta2 pyruvate dehydrogenase) (Arabidopsis thaliana; P52901:D295N) (protein)
chain 1: SAAFSRLISTDTTPITIETSLPFTAHLCDPPSRSVESSSQELLDFFRTMALMRRMEIAADSLYKAKLIRGFCHLYDGQEAVAIGMEAAITKKDAIITAYRDHCIFLGRGGSLHEVFSELMGRQAGCSKGKGGSMHFYKKESSFYGGHGIVGAQVPLGCGIAFAQKYNKEEAVTFALYGDGAANQGQLFEALNISALWDLPAILVCENNHYGMGTAEWRAAKSPSYYKRGDYVPGLKVDGMDAFAVKQACKFAKQHALEKGPIILEMDTYRYHGHSMSNPGSTYRTRDEISGVRQERDPIERIKKLVLSHDLATEKELKDMEKEIRKEVDDAIAKAKDCPMPEPSELFTNVYVKGFGTESFGPDRKEVKASLP
chain 2: AAGAKEMTVRDALNSAIDEEMSADPKVFVMGEEVGQYQGAYKITKGLLEKYGPERVYDTPITEAGFTGIGVGAAYAGLKPVVEFMTFNFSMQAIDHIINSAAKSNYMSAGQINVPIVFRGPNGAAAGVGAQHSQCYAAWYASVPGLKVLAPYSAEDARGLLKAAIRDPDPVVFLENELLYGESFPISEEALDSSFCLPIGKAKIEREGKDVTIVTFSKMVGFALKAAEKLAEEGISAEVINLRSIRPLDRATINASVRKTSRLVTVEEGFPQHGVCAEICASVVEESFSYLDAPVERIAGADVPMPYAANLERLALPQIEDIVRASKRACYRSK
notes: as for B1
B3: AtPDC E1 (AtE1; recombinant alpha2beta2 pyruvate dehydrogenase) (Arabidopsis thaliana; P52901:G297D) (protein)
chain 1: SAAFSRLISTDTTPITIETSLPFTAHLCDPPSRSVESSSQELLDFFRTMALMRRMEIAADSLYKAKLIRGFCHLYDGQEAVAIGMEAAITKKDAIITAYRDHCIFLGRGGSLHEVFSELMGRQAGCSKGKGGSMHFYKKESSFYGGHGIVGAQVPLGCGIAFAQKYNKEEAVTFALYGDGAANQGQLFEALNISALWDLPAILVCENNHYGMGTAEWRAAKSPSYYKRGDYVPGLKVDGMDAFAVKQACKFAKQHALEKGPIILEMDTYRYHGHSMSDPDSTYRTRDEISGVRQERDPIERIKKLVLSHDLATEKELKDMEKEIRKEVDDAIAKAKDCPMPEPSELFTNVYVKGFGTESFGPDRKEVKASLP
chain 2: AAGAKEMTVRDALNSAIDEEMSADPKVFVMGEEVGQYQGAYKITKGLLEKYGPERVYDTPITEAGFTGIGVGAAYAGLKPVVEFMTFNFSMQAIDHIINSAAKSNYMSAGQINVPIVFRGPNGAAAGVGAQHSQCYAAWYASVPGLKVLAPYSAEDARGLLKAAIRDPDPVVFLENELLYGESFPISEEALDSSFCLPIGKAKIEREGKDVTIVTFSKMVGFALKAAEKLAEEGISAEVINLRSIRPLDRATINASVRKTSRLVTVEEGFPQHGVCAEICASVVEESFSYLDAPVERIAGADVPMPYAANLERLALPQIEDIVRASKRACYRSK
notes: as for B1
B4: AtPDC E1 (AtE1; recombinant alpha2beta2 pyruvate dehydrogenase) (Arabidopsis thaliana; P52901:D295A) (protein)
chain 1: SAAFSRLISTDTTPITIETSLPFTAHLCDPPSRSVESSSQELLDFFRTMALMRRMEIAADSLYKAKLIRGFCHLYDGQEAVAIGMEAAITKKDAIITAYRDHCIFLGRGGSLHEVFSELMGRQAGCSKGKGGSMHFYKKESSFYGGHGIVGAQVPLGCGIAFAQKYNKEEAVTFALYGDGAANQGQLFEALNISALWDLPAILVCENNHYGMGTAEWRAAKSPSYYKRGDYVPGLKVDGMDAFAVKQACKFAKQHALEKGPIILEMDTYRYHGHSMSAPGSTYRTRDEISGVRQERDPIERIKKLVLSHDLATEKELKDMEKEIRKEVDDAIAKAKDCPMPEPSELFTNVYVKGFGTESFGPDRKEVKASLP
chain 2: AAGAKEMTVRDALNSAIDEEMSADPKVFVMGEEVGQYQGAYKITKGLLEKYGPERVYDTPITEAGFTGIGVGAAYAGLKPVVEFMTFNFSMQAIDHIINSAAKSNYMSAGQINVPIVFRGPNGAAAGVGAQHSQCYAAWYASVPGLKVLAPYSAEDARGLLKAAIRDPDPVVFLENELLYGESFPISEEALDSSFCLPIGKAKIEREGKDVTIVTFSKMVGFALKAAEKLAEEGISAEVINLRSIRPLDRATINASVRKTSRLVTVEEGFPQHGVCAEICASVVEESFSYLDAPVERIAGADVPMPYAANLERLALPQIEDIVRASKRACYRSK
notes: as for B1
B5: AtPDC E1α, wild type, bacterial two-hybrid fusion in pTRG (enzyme, Arabidopsis thaliana, UniProt P52901 1-389, looked up)
chain: MALSRLSSRSNIITRPFSAAFSRLISTDTTPITIETSLPFTAHLCDPPSRSVESSSQELLDFFRTMALMRRMEIAADSLYKAKLIRGFCHLYDGQEAVAIGMEAAITKKDAIITAYRDHCIFLGRGGSLHEVFSELMGRQAGCSKGKGGSMHFYKKESSFYGGHGIVGAQVPLGCGIAFAQKYNKEEAVTFALYGDGAANQGQLFEALNISALWDLPAILVCENNHYGMGTAEWRAAKSPSYYKRGDYVPGLKVDGMDAFAVKQACKFAKQHALEKGPIILEMDTYRYHGHSMSDPGSTYRTRDEISGVRQERDPIERIKKLVLSHDLATEKELKDMEKEIRKEVDDAIAKAKDCPMPEPSELFTNVYVKGFGTESFGPDRKEVKASLP

Substrate in the first data set: CC(=O)C(=O)O
As to the kind of experiment: purified protein. Format: biochemical, Arabidopsis thaliana. The following applies: 1.8 μM K3Fe(CN)6 as electron acceptor, 30°C, labelled compound.
Take B1: the Km (as a rule, the substrate concentration at which the rate is half of its maximum) was 45 ± 18 µM; the catalytic constant (kcat) (usually the number of substrate molecules converted per active site and unit of time at saturation) was found to be 159 ± 14 s⁻¹; the kcat/Km (usually the second-order rate constant that governs catalysis at low substrate concentration) came to 3.5e+06 M⁻¹ s⁻¹.
As to B2, the Michaelis-Menten constant (Km) was 257 ± 144 µM, the kcat was determined as 38 ± 10 s⁻¹ and the kcat/Km stood at 100000 M⁻¹ s⁻¹.
For the molecule B3, the Michaelis constant (Km) amounted to 66 ± 24 µM, the kcat was determined as 70 ± 7 s⁻¹ and the kcat/Km came out at 1e+06 M⁻¹ s⁻¹.
Consider B4, for which the Km is 178 ± 108 µM, the kcat was 52 ± 12 s⁻¹ and the specificity constant (kcat/Km) came to 300000 M⁻¹ s⁻¹.

A further data set addresses T1, Arabidopsis thaliana pyruvate …. As to the kind of experiment: two-hybrid; bacterial two-hybrid (BacterioMatch I, Stratagene): AtPDK in pBT, E1α constructs in pTRG, cotransformed into the E. coli reporter strain; quantified by β-galactosidase activity with o-nitrophenyl-β-D-galactoside. The note with it: partners not purified.
Consider B5, for which the “β-galactosidase reporter activity (100% of WT)” value worked out at 3 μmol min^−1 1.0 A600^−1.

(Values after PMC3034952 (Enzyme Research, 2011).)
